# Test results as given in patent US20250163166A1.
# Experiments:
# [1] = target: human FCγRIIIa receptor (human) (UniProt P08637); experiment: BLI (Octet 96), antibody loaded on sensor, FCγRIIIa 200 nM and 2-fold dilutions in solution
# [2] = target: human FCγRIIIa receptor (human) (UniProt P08637); experiment: BLI; Ratio of the hIgG (hIgG1) control against itself
# human FCγRIIIa receptor (human), sequence (P08637 17-208 limits assumed): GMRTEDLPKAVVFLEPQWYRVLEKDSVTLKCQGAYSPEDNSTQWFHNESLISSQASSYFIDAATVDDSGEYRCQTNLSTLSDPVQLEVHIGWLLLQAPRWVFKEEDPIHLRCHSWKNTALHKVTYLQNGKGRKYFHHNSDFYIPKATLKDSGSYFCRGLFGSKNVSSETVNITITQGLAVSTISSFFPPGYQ
substance,measurement,setting,value
control sample hIgG1 (antibody),Kd,[1],88.6 nM
same,Ratio,[2],1
